According to patent publication US20140271629A1 (Amgen, published 2014):
Values belong to the molecule of their own block, whether it stands above or below them.

Key:
[1] = molecular target: Human BMP4 (R&D Systems cat#314-BP) (human) (UniProt P12644); assay: cell-based or functional assay
huCHRDL-1-DEVD-6xHis = molecular target: T1, huCHRDL-1-DEVD-6xHis (human, UniProt Q9BU40 28-456); assay: KinExA, solution equilibrium, huCHRDL-1-coated beads
T1 construct: also called Human CHRDL-1
T1 sequence: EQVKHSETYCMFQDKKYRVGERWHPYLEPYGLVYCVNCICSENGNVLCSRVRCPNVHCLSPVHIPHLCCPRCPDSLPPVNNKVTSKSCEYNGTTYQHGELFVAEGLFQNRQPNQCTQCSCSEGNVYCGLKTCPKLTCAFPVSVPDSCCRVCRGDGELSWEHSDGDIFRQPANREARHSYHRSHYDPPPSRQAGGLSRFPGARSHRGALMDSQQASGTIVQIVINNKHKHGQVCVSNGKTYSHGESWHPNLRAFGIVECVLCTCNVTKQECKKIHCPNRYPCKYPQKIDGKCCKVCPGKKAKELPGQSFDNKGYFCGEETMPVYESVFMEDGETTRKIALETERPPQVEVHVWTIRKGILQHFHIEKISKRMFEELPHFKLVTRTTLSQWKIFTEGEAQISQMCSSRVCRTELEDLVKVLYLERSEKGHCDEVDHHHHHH
Description: Binding of the various anti-CHRDL-1 antibodies to huCHRDL-1-DEVD-6xHis was performed using KinExA technology. The huCHRDL-1 protein was coated onto Reacti-Gel™ 6X (Pierce Biotechnology, Inc., Rockford, Ill.) agarose beads at a concentration of 50 ug protein/mL of beads in 50 mM Na₂CO₃ pH 9.6 for approximately 18 hours at 4° C. The coated beads were then blocked with 1 mg/mL BSA (Sigma-Aldrich, St. Louis, Mo.) in 1 M Tris-HCl, pH 7.5 for 2 hours at 4° C. Antibodies at fixed concentrations were mixed with varying concentrations of huCHRDL-1 in PBS containing 0.1 mg/mL BSA and 0.005% polysorbate 20 (P-20, BIAcore, Inc., Piscataway, N.J.) for at least 12 hours at room temperature. Antibody concentrations were 10 pM, 30 pM, 100 pM and/or 300 pM as appropriate. […] Antibody bound to the beads was quantified using fluorescent DyLight 649-conjugated goat anti-murine IgG (H+L) antibody (Jackson ImmunoResearch, West Grove, Pa.) at 1 ug/mL in Super Block (Pierce Biotechnology, Inc., Rockford, Ill.) for the mouse antibodies, or using AlexaFluor™ 647-conjugated goat anti-human IgG (H+L) at 1 ug/mL for the humanized antibody. […] The dissociation equilibrium constant (KD) can be determined from nonlinear regression analysis of the competition curves using a multiple curve one-site homogeneous binding model provided in the KinExA Pro software (Sapidyne Instruments, Inc., Boise, Id.).

Human BMP4 (R&D Systems cat#314-BP) (human), sequence (P12644 293-408 limits assumed): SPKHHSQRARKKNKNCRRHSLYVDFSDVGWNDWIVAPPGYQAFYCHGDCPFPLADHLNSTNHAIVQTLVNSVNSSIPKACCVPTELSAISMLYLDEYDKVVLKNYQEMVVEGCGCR

- RLU mean, BRE-luciferase reporter in MC3T3-E1-BRE-Luc cells stimulated with BMP4 (TSG present) [1]: 254 RLU
- reduction of RLU mean, BRE-luciferase reporter in MC3T3-E1-BRE-Luc cells stimulated with BMP4 (TSG present) [1]: 55%
Molecule: muCHRDL-1-DEVD-6xHis (from UniProt Q920C1 23-447)

- RLU mean, BRE-luciferase reporter in MC3T3-E1-BRE-Luc cells stimulated with BMP4 (TSG present) [1]: 62 RLU
- reduction of RLU mean, BRE-luciferase reporter in MC3T3-E1-BRE-Luc cells stimulated with BMP4 (TSG present) [1]: 89%
Molecule: Recombinant human CHRDL-1 (R&D Systems cat#1808-NR), Glu22-Cys450 with C-terminal 10xHis tag (from UniProt Q9BU40 28-456)

- Kd (huCHRDL-1-DEVD-6xHis): 0.142 nM
B1: huz-LC2G2.2_LC/huz-bmHC2G2.2_eflsIgG1 (antibody, V domains shown)
VH: QVQLVQSGAEVKKPGASVKVSCKASGYTFTSYWMHWVRQAPGQGLERMGNINPSNGGTNYNEKFKSRVTMTVDKSSSTAYMELSSLRSEDTAVYYCARSKNNYVAYYFDYWGQGTLVTVSS
VL: DIQMTQSPSSLSASVGDRVTITCRASENIYYSLAWYQQKPGKAPKLLIYNANSLEDGVPSRFSGSGSGTDFTLTISSLQPEDFATYYCKQAYDVPLTFGQGTKLEIKR
notes: also called huz-2G2.2-A; Huz-2G2.2-A
